Blank lines part the entries; values can stand above or below the binder they belong to.
Legend:
P6p = biological target: T1, P6p; assay: two-hybrid library CCmax; details: mean of both orientations;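 further: natural log of median RNA to DNA barcode read ratio; higher means stronger binding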
T1 chain: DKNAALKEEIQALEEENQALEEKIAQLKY

Core_NINN-es_KKEK = biological target: T2, Core_NINN-es_KKEK; assay: two-hybrid library CCmax; details: mean of both orientations;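 further: natural log of median RNA to DNA barcode read ratio; higher means stronger binding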
T2 chain: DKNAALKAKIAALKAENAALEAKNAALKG

O1-bA = biological target: T3, O1-bA; assay: two-hybrid library CCNG1;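 further: natural log of median RNA to DNA barcode read ratio; higher means stronger binding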
T3 chain: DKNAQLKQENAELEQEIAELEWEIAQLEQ

O10-bA = biological target: T4, O10-bA; assay: two-hybrid library CCNG1;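 further: natural log of median RNA to DNA barcode read ratio; higher means stronger binding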
T4 chain: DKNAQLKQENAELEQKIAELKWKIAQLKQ

O11-bA = biological target: T5, O11-bA; assay: two-hybrid library CCNG1
T5 chain: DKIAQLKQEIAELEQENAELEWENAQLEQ

O12-bA = biological target: T6, O12-bA; assay: two-hybrid library CCNG1
T6 chain: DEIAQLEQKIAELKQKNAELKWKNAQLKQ

O13-bA = biological target: T7, O13-bA; assay: two-hybrid library CCNG1
T7 chain: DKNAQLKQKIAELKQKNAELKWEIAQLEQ

O14-bA = biological target: T8, O14-bA; assay: two-hybrid library CCNG1
T8 chain: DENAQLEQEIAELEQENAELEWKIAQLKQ

O15-bA = biological target: T9, O15-bA; assay: two-hybrid library CCNG1
T9 chain: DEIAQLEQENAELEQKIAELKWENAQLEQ

O16-bA = biological target: T10, O16-bA; assay: two-hybrid library CCNG1
T10 chain: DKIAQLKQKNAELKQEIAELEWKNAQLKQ

O2-bA = biological target: T11, O2-bA; assay: two-hybrid library CCNG1
T11 chain: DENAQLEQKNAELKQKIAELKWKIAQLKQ

O3-bA = biological target: T12, O3-bA; assay: two-hybrid library CCNG1
T12 chain: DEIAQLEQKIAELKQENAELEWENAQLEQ

O4-bA = biological target: T13, O4-bA; assay: two-hybrid library CCNG1
T13 chain: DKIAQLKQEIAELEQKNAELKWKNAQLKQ

O5-bA = biological target: T14, O5-bA; assay: two-hybrid library CCNG1
T14 chain: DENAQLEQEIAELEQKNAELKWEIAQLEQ

O6-bA = biological target: T15, O6-bA; assay: two-hybrid library CCNG1
T15 chain: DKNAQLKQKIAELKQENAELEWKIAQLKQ

O7-bA = biological target: T16, O7-bA; assay: two-hybrid library CCNG1
T16 chain: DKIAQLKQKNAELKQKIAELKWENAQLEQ

O8-bA = biological target: T17, O8-bA; assay: two-hybrid library CCNG1
T17 chain: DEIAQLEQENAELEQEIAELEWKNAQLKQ

O9-bA = biological target: T18, O9-bA; assay: two-hybrid library CCNG1
T18 chain: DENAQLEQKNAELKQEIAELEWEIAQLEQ

4H1046-bN = biological target: T19, 4H1046-bN; assay: two-hybrid library CCNG1; details: mean of both orientations
T19 chain: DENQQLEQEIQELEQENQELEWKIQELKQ

4H1072-bN = biological target: T20, 4H1072-bN; assay: two-hybrid library CCNG1
T20 chain: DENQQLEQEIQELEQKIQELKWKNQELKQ

4H2568-bN = biological target: T21, 4H2568-bN; assay: two-hybrid library CCNG1
T21 chain: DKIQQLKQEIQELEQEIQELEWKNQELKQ

4H2619-bN = biological target: T22, 4H2619-bN; assay: two-hybrid library CCNG1
T22 chain: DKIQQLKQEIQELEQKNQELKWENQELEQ

4H2745-bN = biological target: T23, 4H2745-bN; assay: two-hybrid library CCNG1
T23 chain: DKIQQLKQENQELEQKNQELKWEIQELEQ

4H344-bN = biological target: T24, 4H344-bN; assay: two-hybrid library CCNG1
T24 chain: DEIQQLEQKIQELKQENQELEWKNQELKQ

4H363-bN = biological target: T25, 4H363-bN; assay: two-hybrid library CCNG1
T25 chain: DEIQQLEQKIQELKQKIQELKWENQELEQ

4H3907-bN = biological target: T26, 4H3907-bN; assay: two-hybrid library CCNG1
T26 chain: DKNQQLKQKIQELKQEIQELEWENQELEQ

4H3961-bN = biological target: T27, 4H3961-bN; assay: two-hybrid library CCNG1; details: mean of both orientations
T27 chain: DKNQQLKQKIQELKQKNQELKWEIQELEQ

4H470-bN = biological target: T28, 4H470-bN; assay: two-hybrid library CCNG1
T28 chain: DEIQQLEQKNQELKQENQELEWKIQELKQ

4H1347-bH = biological target: T29, 4H1347-bH; assay: two-hybrid library CCNG1
T29 chain: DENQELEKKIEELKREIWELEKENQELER

4H145-bH = biological target: T30, 4H145-bH; assay: two-hybrid library CCNG1
T30 chain: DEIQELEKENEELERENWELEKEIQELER

4H2619-bH = biological target: T31, 4H2619-bH; assay: two-hybrid library CCNG1
T31 chain: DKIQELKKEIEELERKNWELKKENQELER

4H2691-bH = biological target: T32, 4H2691-bH; assay: two-hybrid library CCNG1
T32 chain: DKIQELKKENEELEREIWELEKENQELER

4H3070-bH = biological target: T33, 4H3070-bH; assay: two-hybrid library CCNG1
T33 chain: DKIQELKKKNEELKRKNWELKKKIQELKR

4H342-bH = biological target: T34, 4H342-bH; assay: two-hybrid library CCNG1
T34 chain: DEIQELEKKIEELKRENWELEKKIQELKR

4H3632-bH = biological target: T35, 4H3632-bH; assay: two-hybrid library CCNG1
T35 chain: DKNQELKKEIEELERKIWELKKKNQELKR

4H496-bH = biological target: T36, 4H496-bH; assay: two-hybrid library CCNG1
T36 chain: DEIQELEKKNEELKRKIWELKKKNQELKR

Core_NIII-es_KEEE = biological target: T37, Core_NIII-es_KEEE; assay: two-hybrid library CCmax; details: mean of both orientations
T37 chain: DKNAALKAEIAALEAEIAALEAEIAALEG

4H121-bA = biological target: T38, 4H121-bA; assay: two-hybrid library CCNG1
T38 chain: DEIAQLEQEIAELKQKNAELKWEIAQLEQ

4H182-bA = biological target: T39, 4H182-bA; assay: two-hybrid library CCNG1
T39 chain: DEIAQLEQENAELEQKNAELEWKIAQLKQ

4H2134-bA = biological target: T40, 4H2134-bA; assay: two-hybrid library CCNG1
T40 chain: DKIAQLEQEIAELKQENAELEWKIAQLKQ

4H2143-bA = biological target: T41, 4H2143-bA; assay: two-hybrid library CCNG1
T41 chain: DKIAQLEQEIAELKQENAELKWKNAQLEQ

4H2223-bA = biological target: T42, 4H2223-bA; assay: two-hybrid library CCNG1
T42 chain: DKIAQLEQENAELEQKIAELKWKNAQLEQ

4H2438-bA = biological target: T43, 4H2438-bA; assay: two-hybrid library CCNG1
T43 chain: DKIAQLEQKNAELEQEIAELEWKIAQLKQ

4H2444-bA = biological target: T44, 4H2444-bA; assay: two-hybrid library CCNG1
T44 chain: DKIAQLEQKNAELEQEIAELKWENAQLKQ

4H2473-bA = biological target: T45, 4H2473-bA; assay: two-hybrid library CCNG1
T45 chain: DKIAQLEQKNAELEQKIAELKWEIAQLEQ

4H2503-bA = biological target: T46, 4H2503-bA; assay: two-hybrid library CCNG1
T46 chain: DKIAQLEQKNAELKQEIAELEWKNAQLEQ

4H2588-bA = biological target: T47, 4H2588-bA; assay: two-hybrid library CCNG1
T47 chain: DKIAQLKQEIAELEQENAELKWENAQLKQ

4H2692-bA = biological target: T48, 4H2692-bA; assay: two-hybrid library CCNG1
T48 chain: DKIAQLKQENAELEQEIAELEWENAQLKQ

4H2717-bA = biological target: T49, 4H2717-bA; assay: two-hybrid library CCNG1
T49 chain: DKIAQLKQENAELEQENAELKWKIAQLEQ

4H2839-bA = biological target: T50, 4H2839-bA; assay: two-hybrid library CCNG1
T50 chain: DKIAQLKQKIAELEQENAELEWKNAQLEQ

4H2915-bA = biological target: T51, 4H2915-bA; assay: two-hybrid library CCNG1
T51 chain: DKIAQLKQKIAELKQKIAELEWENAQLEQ

4H3057-bA = biological target: T52, 4H3057-bA; assay: two-hybrid library CCNG1
T52 chain: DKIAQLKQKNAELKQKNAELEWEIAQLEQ

4H319-bA = biological target: T53, 4H319-bA; assay: two-hybrid library CCNG1
T53 chain: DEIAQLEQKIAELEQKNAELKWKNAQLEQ

4H3277-bA = biological target: T54, 4H3277-bA; assay: two-hybrid library CCNG1
T54 chain: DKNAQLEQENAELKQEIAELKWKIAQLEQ

4H348-bA = biological target: T55, 4H348-bA; assay: two-hybrid library CCNG1
T55 chain: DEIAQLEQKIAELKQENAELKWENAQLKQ

4H40-bA = biological target: T56, 4H40-bA; assay: two-hybrid library CCNG1
T56 chain: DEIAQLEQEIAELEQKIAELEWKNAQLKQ

4H477-bA = biological target: T57, 4H477-bA; assay: two-hybrid library CCNG1
T57 chain: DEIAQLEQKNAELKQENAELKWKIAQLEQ

4H492-bA = biological target: T58, 4H492-bA; assay: two-hybrid library CCNG1
T58 chain: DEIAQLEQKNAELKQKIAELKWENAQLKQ

4H741-bA = biological target: T59, 4H741-bA; assay: two-hybrid library CCNG1
T59 chain: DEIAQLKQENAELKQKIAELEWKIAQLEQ

Binder: DENAALEEKIAQLKQKNAALKEEIQALEY [P5p]
interaction score (P6p): 1.9

Binder: DENQELEKKIEELKREIWELEKENQELER [4H1347-bH]
interaction score (4H1347-bH): 0.364
interaction score (4H145-bH): -0.368
interaction score (4H2619-bH): -0.987
interaction score (4H2691-bH): -0.275
interaction score (4H3070-bH): -0.395
interaction score (4H342-bH): -0.391
interaction score (4H3632-bH): 1.71
interaction score (4H496-bH): -0.415

Binder: DENAALEAKIAALKAKIAALKAKIAALKG [Core_NIII-es_EKKK]
interaction score (Core_NIII-es_KEEE): 2.17

Now from value to binder:

interaction score (Core_NINN-es_KKEK): 1.78
Binder: DENAALEAEIAALEAKNAALKAENAALEG [Core_NINN-es_EEKE]

interaction score (O1-bA): -0.889
interaction score (O10-bA): 1.21
interaction score (O11-bA): -1.05
interaction score (O12-bA): -0.825
interaction score (O13-bA): 0.415
interaction score (O14-bA): -1.02
interaction score (O15-bA): -1.03
interaction score (O16-bA): -0.581
interaction score (O2-bA): 2.31
interaction score (O3-bA): -1.08
interaction score (O4-bA): -1.53
interaction score (O5-bA): -1.23
interaction score (O6-bA): -0.599
interaction score (O7-bA): -0.0848
interaction score (O8-bA): -1.59
interaction score (O9-bA): -0.823
Binder: DKNAQLKQENAELEQEIAELEWEIAQLEQ [O1-bA]

interaction score (4H1046-bN): -0.38
interaction score (4H1072-bN): -0.367
interaction score (4H2568-bN): 0.836
interaction score (4H2619-bN): -1.35
interaction score (4H2745-bN): -0.112
interaction score (4H344-bN): 0.965
interaction score (4H363-bN): -0.252
interaction score (4H3907-bN): -0.5
interaction score (4H3961-bN): 1.37
interaction score (4H470-bN): 0.0233
Binder: DENQQLEQEIQELEQENQELEWKIQELKQ [4H1046-bN]

interaction score (4H121-bA): -0.103
interaction score (4H182-bA): -1.13
interaction score (4H2134-bA): 1.92
interaction score (4H2143-bA): -0.624
interaction score (4H2223-bA): 0.764
interaction score (4H2438-bA): 1.56
interaction score (4H2444-bA): -3.87
interaction score (4H2473-bA): -1.11
interaction score (4H2503-bA): -1.32
interaction score (4H2588-bA): -0.283
interaction score (4H2692-bA): -0.366
interaction score (4H2717-bA): -0.497
interaction score (4H2839-bA): 0.693
interaction score (4H2915-bA): -0.0952
interaction score (4H3057-bA): 0.0584
interaction score (4H319-bA): -1.51
interaction score (4H3277-bA): -1.51
interaction score (4H348-bA): -1.19
interaction score (4H40-bA): -0.579
interaction score (4H477-bA): -1.12
interaction score (4H492-bA): -1.44
interaction score (4H741-bA): -1.09
Binder: DEIAQLEQEIAELKQKNAELKWEIAQLEQ [4H121-bA]

Source: PMC10397247
